Results published in paper PMC6629437 (Cell, 2019).

How the values were obtained:
[1] = molecular target: H1 HA of A/California/04/2009, His-tagged soluble HA (competition assay) (Influenza A virus A/California/04/2009 …, UniProt C3W5S1, strain); experiment: BLI
[2] = molecular target: T1, HA head domain of H1 A/Solomon Islands/3/2006 (Influenza A virus A/Solomon …, strain); experiment: BLI
T1 chain: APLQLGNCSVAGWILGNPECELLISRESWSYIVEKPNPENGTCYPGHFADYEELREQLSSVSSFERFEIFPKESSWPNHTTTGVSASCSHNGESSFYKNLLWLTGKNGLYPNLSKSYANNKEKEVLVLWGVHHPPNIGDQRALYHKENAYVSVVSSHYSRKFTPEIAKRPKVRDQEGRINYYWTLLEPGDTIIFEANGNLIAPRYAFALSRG

[3] = molecular target: HA head domain of H3 A/Victoria/361/2011 (Influenza A virus A/Victoria/361/2011 …, UniProt A0A097PF39, strain); experiment: BLI
[4] = molecular target: HA head domain of H7 A/Shanghai/02/2013 (Influenza A virus A/Shanghai/02/2013 …, UniProt R4NN21, strain); experiment: BLI
[5] = molecular target: H7 HA of A/New York/107/2003 (Influenza A virus A/New York/107/2003 …, UniProt B2LVD7, strain); experiment: ELISA
[6] = molecular target: monomeric HA head domain of H5 A/Vietnam/1203/2004 (Influenza A virus A/Vietnam/1203/2004 …, UniProt Q5EP31, strain); experiment: HDX-MS
[7] = molecular target: H1 HA0 trimer of A/California/04/2009 (uncleaved, baculovirus-expressed ectodomain) (influenza A virus A/California/04/2009 …); experiment: BLI
[8] = molecular target: H7 HA0 trimer of A/Shanghai/02/2013 (uncleaved, baculovirus-expressed ectodomain) (Influenza A virus A/Shanghai/02/2013 …, UniProt R4NN21, strain); experiment: BLI
[9] = molecular target: HA head domain of H3 A/Hong Kong/1/1968 (Influenza A virus A/Hong Kong/1/1968 …, strain); experiment: crystal structure
H1 HA of A/Texas/36/1991 = H1 HA of A/Texas/36/1991 (Influenza A virus A/Texas/36/1991 (H1N1), UniProt Q6WG02, strain); experiment: ELISA
[10] = molecular target: H5 HA of A/Indonesia/5/2005 (Influenza A virus A/Indonesia/5/2005 …, UniProt A5A5L7, strain); experiment: ELISA

Measured: binding result

B1: FluA-20 IgG (hybridoma-generated) (antibody, V domains shown)
VH: QVQLEESGPGLVKPSETLSLTCSVSGVSVTSDIYYWTWIRQPPGKGLEWIGYIFYNGDTNYNPSLKSRVTMSIDTSKNEFSLRLTSVTAADTAVYFCARGTEDLGYCSSGSCPNHWGQGTLVTVSS
VL: DIVMTQSPSSLSASIGDRVTITCRPSQNIRSFLNWFQHKPGKAPKLLIYAASNLQSGVPSRFSGSGSGTEFTLTIRSLQPEDFATYYCQQSYNTPPTFGQGTKVEIK
binds: [1] | [2] | [3] | [4] | [5] | [6]

B2: rFluA-20 Fab (Fab, V domains shown)
VH: QVQLEESGPGLVKPSETLSLTCSVSGVSVTSDIYYWTWIRQPPGKGLEWIGYIFYNGDTNYNPSLKSRVTMSIDTSKNEFSLRLTSVTAADTAVYFCARGTEDLGYCSSGSCPNHWGQGTLVTVSS
VL: DIVMTQSPSSLSASIGDRVTITCRPSQNIRSFLNWFQHKPGKAPKLLIYAASNLQSGVPSRFSGSGSGTEFTLTIRSLQPEDFATYYCQQSYNTPPTFGQGTKVEIK
binds: [7] | [8] | [9]

B3: rFluA-20 IgG (recombinant FluA-20 IgG) (antibody, V domains shown)
VH: QVQLEESGPGLVKPSETLSLTCSVSGVSVTSDIYYWTWIRQPPGKGLEWIGYIFYNGDTNYNPSLKSRVTMSIDTSKNEFSLRLTSVTAADTAVYFCARGTEDLGYCSSGSCPNHWGQGTLVTVSS
VL: DIVMTQSPSSLSASIGDRVTITCRPSQNIRSFLNWFQHKPGKAPKLLIYAASNLQSGVPSRFSGSGSGTEFTLTIRSLQPEDFATYYCQQSYNTPPTFGQGTKVEIK
binds: [5] | H1 HA of A/Texas/36/1991 | [10]
